Legend:
[1] = molecular target: T1, Soluble hFcγRIIB (R & D Systems) (human, UniProt P31994 46-217); experiment: SPR, mAb immobilised, soluble hFcγRIIB injected
T1 construct: Bought reagent; also called hFcγRIIB fusion protein
T1 sequence (looked up): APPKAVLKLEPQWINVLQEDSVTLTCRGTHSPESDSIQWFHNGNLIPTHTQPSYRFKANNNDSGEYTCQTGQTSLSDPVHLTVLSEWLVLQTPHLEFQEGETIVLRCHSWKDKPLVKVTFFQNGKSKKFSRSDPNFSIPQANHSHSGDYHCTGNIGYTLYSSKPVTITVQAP
Protocol: (§1) A BIAcore T100 analyzer (GE Healthcare, UK) was used to determine the binding affinity of the hFcγRIIB mAb, as described elsewhere.²⁵ mAb were immobilized onto a CM5 sensorchip (GE Healthcare, UK), using standard amine coupling according to the manufacturer's instructions. Soluble hFcγRIIB (0.16-100 nM; R & D Systems, UK) was injected for 5 minutes and dissociation monitored for 10 minutes. Background binding to the control flow cell was monitored and subtracted automatically. The KD values were calculated from the 1:1 binding model using the BIAcore T100 Evaluation software.

[2] = molecular target: T1, Soluble hFcγRIIB (R & D Systems); experiment: SPR, mAb immobilised, soluble hFcγRIIB injected; column headed KD (1/s)
Protocol: as §1

[3] = molecular target: T1, Soluble hFcγRIIB (R & D Systems); experiment: SPR, mAb immobilised, soluble hFcγRIIB injected; column headed KA (1/MS)
Protocol: as §1

[4] = molecular target: T1, Soluble hFcγRIIB (R & D Systems); experiment: SPR (Biacore T100), mAb immobilised on CM5, soluble hFcγRIIB injected, 1:1 model
Protocol: as §1

human FcγRIIB on cells [5] = molecular target: T2, human FcγRIIB on cells (human, UniProt P31994 43-310); experiment: inhibition of binding of IC to hFcγRIIB-transfected cells by the mAb [2/2) bottom]
T2 construct: whole, on cells; also called hFcγRIIB; CD32B
T2 sequence (looked up): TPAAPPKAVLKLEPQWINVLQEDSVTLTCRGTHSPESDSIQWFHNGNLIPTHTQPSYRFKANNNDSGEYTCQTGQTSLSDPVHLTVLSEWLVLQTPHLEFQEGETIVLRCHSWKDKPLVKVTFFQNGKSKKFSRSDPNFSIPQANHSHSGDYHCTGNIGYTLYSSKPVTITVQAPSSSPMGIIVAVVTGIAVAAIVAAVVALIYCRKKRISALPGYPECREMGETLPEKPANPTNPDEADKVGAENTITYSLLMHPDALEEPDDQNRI

[6] = molecular target: T1, Soluble hFcγRIIB (R & D Systems); experiment: SPR (Biacore T100), mAb immobilised on CM5, soluble hFcγRIIB injected, 1:1 model; column headed KD (1/s)
Protocol: as §1

[7] = molecular target: T1, Soluble hFcγRIIB (R & D Systems); experiment: SPR (Biacore T100), mAb immobilised on CM5, soluble hFcγRIIB injected, 1:1 model; column headed KA (1/MS)
Protocol: as §1

human FcγRIIB on cells [8] = molecular target: T2, human FcγRIIB on cells; experiment: binding to hFcγRIIB-transfected cells, total fluorescence intensity against mAb concentration [2/2) bottom]
human FcγRIIA on cells [9] = molecular target: T3, human FcγRIIA on cells (human, UniProt P12318 34-317); experiment: binding to FcγRIIA-transfected CHO-k1 cells
T3 construct: whole, on cells; also called hFcγRIIA; FcγRIIA^+ve CHO
T3 sequence (looked up): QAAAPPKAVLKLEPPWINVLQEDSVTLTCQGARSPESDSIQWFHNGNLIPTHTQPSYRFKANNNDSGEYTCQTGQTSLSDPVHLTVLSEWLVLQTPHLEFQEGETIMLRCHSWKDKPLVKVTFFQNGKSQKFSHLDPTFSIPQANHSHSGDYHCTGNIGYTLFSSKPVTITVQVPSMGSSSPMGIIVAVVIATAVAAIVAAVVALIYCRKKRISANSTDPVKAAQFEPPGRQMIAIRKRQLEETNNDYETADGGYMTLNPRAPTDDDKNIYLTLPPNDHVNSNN

[10] = molecular target: T4, cynomolgus monkey FcγRIIB (cynomolgus monkey, UniProt A0A140HDP4 43-312); experiment: IHC on frozen tissue sections
T4 construct: whole, on cells; also called FcγRIIB in other species
T4 sequence: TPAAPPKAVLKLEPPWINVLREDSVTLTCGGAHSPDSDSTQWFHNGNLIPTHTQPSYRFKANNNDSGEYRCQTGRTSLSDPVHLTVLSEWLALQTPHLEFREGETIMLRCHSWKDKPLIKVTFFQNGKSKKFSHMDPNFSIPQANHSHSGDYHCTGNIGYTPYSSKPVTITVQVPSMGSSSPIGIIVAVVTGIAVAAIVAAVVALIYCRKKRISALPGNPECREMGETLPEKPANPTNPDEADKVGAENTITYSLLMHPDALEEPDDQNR

rat FcγRIIB = molecular target: T5, rat FcγRIIB (rat, UniProt A0A0G2K9R6 42-295); experiment: IHC on frozen tissue sections
T5 construct: also called FcγRIIB in other species
T5 sequence: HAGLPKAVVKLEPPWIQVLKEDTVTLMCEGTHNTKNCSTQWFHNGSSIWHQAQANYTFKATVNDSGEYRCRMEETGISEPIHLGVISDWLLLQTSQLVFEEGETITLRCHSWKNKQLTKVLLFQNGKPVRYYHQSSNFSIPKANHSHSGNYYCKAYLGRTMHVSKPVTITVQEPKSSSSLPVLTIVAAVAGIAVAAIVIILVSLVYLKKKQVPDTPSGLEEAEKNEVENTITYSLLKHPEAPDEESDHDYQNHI

mouse FcγRIIB = molecular target: T6, mouse FcγRIIB (mouse, UniProt P08101 30-330); experiment: IHC on frozen tissue sections
T6 construct: whole, on cells; also called mFcγRII; FcγRIIB in other species
T6 sequence (looked up): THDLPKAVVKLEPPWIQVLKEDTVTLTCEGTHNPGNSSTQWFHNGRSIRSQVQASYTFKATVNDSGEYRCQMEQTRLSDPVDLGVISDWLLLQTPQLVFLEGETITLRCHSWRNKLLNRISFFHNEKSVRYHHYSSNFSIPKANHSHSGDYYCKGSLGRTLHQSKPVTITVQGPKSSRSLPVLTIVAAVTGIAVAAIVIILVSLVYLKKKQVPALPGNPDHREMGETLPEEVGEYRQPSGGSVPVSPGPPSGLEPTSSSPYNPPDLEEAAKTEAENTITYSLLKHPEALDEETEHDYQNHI

human FcγRIIA on cells [11] = molecular target: T3, human FcγRIIA on cells; experiment: not specified (summary in the discussion)
human FcγRIIA on cells [12] = molecular target: T3, human FcγRIIA on cells; experiment: binding to FcγRIIA-transfected CHO-k1 cells; remark: listed apart in the source
[13] = molecular target: T1, Soluble hFcγRIIB (R & D Systems); experiment: SPR, mAb immobilised, soluble hFcγRIIB injected; Table 2 gives the same values for 6G08
Protocol: as §1

[14] = molecular target: T1, Soluble hFcγRIIB (R & D Systems); experiment: SPR, mAb immobilised, soluble hFcγRIIB injected; column headed KD (1/s); Table 2 gives the same values for 6G08
Protocol: as §1

B1: 5C04 (antibody, human IgG1, V domains shown)
VH: EVQLLESGGGLVQPGGSLRLSCAASGFTFSNYGMHWVRQAPGKGLEWVAVISYDGSNKYYADSVKGRFTISRDNSKNTLYLQMNSLRAEDTAVYYCAREWRDAFDIWGQGTLVTVSS
VL: QSVLTQPPSASGTPGQRVTISCTGSSSNIGAGYDVHWYQQLPGTAPKLLIYSDNQRPSGVPDRFSGSKSGTSASLAISGLRSEDEADYYCAAWDDSLSGSWVFGGGTKLTVLG
notes: hFcγRIIB mAb, human IgG1 (WT); Only VH/VL tied to the clone; also called Antibody clone: 5C04
B1 showed a Kd [1] of 142 nM, a koff [2] of 0.0481 s⁻¹ and a kon [3] of 324000 M⁻¹ s⁻¹. The Kd [4] was 142 nM, the “IC50 (read off the curve)” value (human FcγRIIB on cells [5]) was ~0.6 nM and the koff [6] was 0.0481 s⁻¹. For the same binder, the kon [7] was 324000 M⁻¹ s⁻¹ and the “EC50 (read off the curve)” value (human FcγRIIB on cells [8]) was ~0.4 nM.

B2: 5C05 (antibody, human IgG1, V domains shown)
VH: EVQLLESGGGLVQPGGSLRLSCAASGFTFSTYGMHWVRQAPGKGLEWVAVISYDGSNKYYADSVKGRFTISRDNSKNTLYLQMNSLRAEDTAVYYCARENFDAFDVWGQGTLVTVSS
VL: QSVLTQPPSASGTPGQRVTISCTGSSSNIGAGYDVHWYQQLPGTAPKLLIYSNSQRPSGVPDRFSGSKSGTSASLAISGLRSEDEADYYCAAWDDSLNGQVVFGGGTKLTVLG
notes: hFcγRIIB mAb, human IgG1 (WT); Only VH/VL tied to the clone; also called Antibody clone: 5C05
In the case of B2, the binding result (human FcγRIIA on cells [9]) is reported as “no binding”, the Kd [1] is reported as 2210 nM and the koff [2] is reported as 0.00177 s⁻¹. The kon [3] was 802 M⁻¹ s⁻¹, the Kd [4] was 2210 nM and the koff [6] was 0.00177 s⁻¹. The kon [7] was 802 M⁻¹ s⁻¹.

B3: 6G11 (antibody, human IgG1, V domains shown)
VH: EVQLLESGGGLVQPGGSLRLSCAASGFTFSSYGMHWVRQAPGKGLEWMAVISYDGSNKYYADSVKGRFTISRDNSKNTLYLQMNSLRAEDTAVYYCARELYDAFDIWGQGTLVTVSS
VL: QSVLTQPPSASGTPGQRVTISCTGSSSNIGAGYDVHWYQQLPGTAPKLLIYADDHRPSGVPDRFSGSKSGTSASLAISGLRSEDEADYYCASWDDSQRAVIFGGGTKLTVLG
notes: Lead antagonistic hFcγRIIB mAb, human IgG1 (WT); Only VH/VL tied to the clone; also called Antibody clone: 6G11; WT 6G11
B3: no binding [10]; no binding (rat FcγRIIB); no binding (mouse FcγRIIB). For the same binder, the binding result (human FcγRIIA on cells [11]) was “no binding”, the Kd [1] was 26.4 nM and the koff [2] was 0.182 s⁻¹. The kon [3] was 6.9e+06 M⁻¹ s⁻¹, the Kd [4] was 26.4 nM and the koff [6] was 0.182 s⁻¹. The kon [7] was 6.9e+06 M⁻¹ s⁻¹.

B4: 5G08 (antibody, human IgG1, V domains shown)
VH: EVQLLESGGGLVQPGGSLRLSCAASGFTFNNYGMHWVRQAPGKGLEWVAVISYDGSNRYYADSVKGRFTMSRDNSKNTLYLQMNSLRAEDTAVYYCARDRWNGMDVWGQGTLVTVSS
VL: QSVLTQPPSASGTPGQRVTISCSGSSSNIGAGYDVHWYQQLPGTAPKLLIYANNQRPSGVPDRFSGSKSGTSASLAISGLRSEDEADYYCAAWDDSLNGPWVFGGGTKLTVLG
notes: hFcγRIIB mAb, human IgG1 (WT); Only VH/VL tied to the clone; also called Antibody clone: 5G08
In the case of B4, the binding result (human FcγRIIA on cells [12]) is reported as “no binding”, the Kd [13] is reported as 713 nM and the koff [14] is reported as 0.337 s⁻¹.
